# Assay results reported in patent publication US20040132641A1 (University of Pennsylvania, published 2004).
# Positions of bridges follow the written chain, without caps; N, C: chain ends. No end group written: not given here.
# T1: Human recombinant TNF-receptor (I) extracellular domain-IgGFc fusion protein (TNFRI-Fc) (human, UniProt P19438 30-211)
# T1 construct: extracellular domain; not shown: IgG Fc
# T1 sequence (looked up): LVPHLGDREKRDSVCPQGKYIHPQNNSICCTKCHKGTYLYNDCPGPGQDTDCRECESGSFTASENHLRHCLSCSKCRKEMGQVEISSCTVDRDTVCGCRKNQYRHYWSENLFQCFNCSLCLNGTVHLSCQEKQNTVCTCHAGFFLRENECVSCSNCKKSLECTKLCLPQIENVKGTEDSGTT
# T2: Flag-tagged soluble human Fas ligand (FasL-Flag) (human, UniProt P48023 103-281, limits assumed)
# T2 construct: Bought from Kamiya Biomedical; also called soluble FasL-Flag fusion protein; not shown: Flag tag
# T2 sequence (looked up): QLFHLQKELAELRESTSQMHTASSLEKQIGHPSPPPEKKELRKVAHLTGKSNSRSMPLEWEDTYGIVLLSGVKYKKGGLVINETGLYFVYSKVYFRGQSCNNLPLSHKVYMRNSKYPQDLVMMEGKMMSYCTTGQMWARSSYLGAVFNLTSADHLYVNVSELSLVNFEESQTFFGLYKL
# T3: human Fas extra cellular domain-IgGFc fusion protein (Fas-Fc) (human, UniProt P25445 26-173)
# T3 construct: extracellular domain; Bought from Kamiya Biomedical; also called soluble Fas receptor; not shown: IgG Fc
# T3 sequence (looked up): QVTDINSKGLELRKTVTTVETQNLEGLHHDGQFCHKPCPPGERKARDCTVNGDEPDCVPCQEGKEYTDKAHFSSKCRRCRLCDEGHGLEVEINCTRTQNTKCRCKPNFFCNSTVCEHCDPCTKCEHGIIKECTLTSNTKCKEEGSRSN
# B1: Kp7-6 (peptide)
# peptide: YCDEHFCY
# modifications: disulfide 2-7
# notes: Synthetic exocyclic peptide derived from the Kp7 loop of human Fas (91 CDEGHGL 97); also called Fas mimetic Kp7-6; exocyclic mimetic Kp7-6
# Experiments:
# [1] = target: T1, Human recombinant TNF-receptor (I) …; assay: SPR (BIAcore), target immobilised on sensor chip
# Protocol: (§1) To assess the specificity of Kp7-6 binding interaction, Fas, FasL and TNFα were immobilized on a sensor chip. Kp7-6 bound to FasL but not to TNFα, which indicates Kp7-6 bound to FasL specifically (FIG. 3B). Kp7-6 also bound to Fas (FIG. 3B). […] (Naismith, J. H. et al. Structure 4, 1251-1262 (1996)). […] No significant binding to TNF-R was detected.
# (§2) Biosensor analysis. All experiments were carried out on a BIAcore 3000 instrument (Biacore A G, Uppsala, Sweden) at 25° C. using PBS, pH 7.4, containing 0.005% surfactant P20 (Biacore A G) as the running buffer. FasL-Flag, Fas-Fc or TNFRI-Fc was immobilized on research-grade CM5 sensor chips (Biacore AG) using standard N-ethyl-N-dimethylaminopropyl carbodiimid/N-hydroxysuccinimide coupling. Immobilization was performed in 10 mM sodium acetate buffer at pH 4.5 for FasL-Flag and Fas-Fc, and at pH 4.0 for TNFRI-Fc. After coupling, excess N-hydroxysuccinimide groups were inactivated with ethanolamine. For binding studies, about 1500 resonance units (RU) of FasL-Flag, Fas-Fc and TNFRI-Fc were coupled to the chips. Surface plasmon resonance (SPR) measurements were carried out at a flow rate of 20 ml min⁻¹. Data were analyzed with the BIA evaluation 3.0 software (Biacore AG). The sensograms give values for the relative response in resonance units (RU) after background subtraction versus time in seconds. […]
# [2] = target: T2, Flag-tagged soluble human Fas ligand …; assay: SPR (BIAcore), FasL-Flag immobilised, Kp7-6 in solution
# Protocol: (§3) The kinetics of binding of Kp7-6, which mediated the best inhibitory activity to FasL, was performed using surface plasmon resonance (BIAcore™) analysis. FasL-Flag was immobilized onto a sensor chip and various solutions containing different concentrations of Kp7-6 were passed over the surface. […] The koff value is considered as an important indicator in the development of therapeutics with biological activity (Benveniste, M. et al. Br J Pharmacol 104, 207-221 (1991); Yiallouros, I. et al. Biochem J 331, 375-379 (1998)), and generally correlates with potent biological effects. (Moosmayer, D. et al. J Interferon Cytokine Res 16, 471-477 (1996)). […] (Berezov, A. et al. J Med Chem 44, 2565-2574 (2001)).
# as §2, with “For binding studies, about 1500 resonance units (RU) of FasL-Flag, Fas-Fc and TNFRI-Fc were coupled to the chips. Surface plasmon resonance (SPR) measurements were carried out at a flow rate of 20 ml min⁻¹.” left out, “AG).” for “AG). The sensograms give values for the relative response in resonance units (RU) after background subtraction versus time in seconds.”
# [3] = target: T3, human Fas extra cellular domain-IgGFc …; assay: SPR (BIAcore 3000), Fas-Fc immobilised, Kp7-6 in flow
# Protocol: as §1, §2
# [4] = target: T2, Flag-tagged soluble human Fas ligand …; assay: SPR (BIAcore), FasL-Flag immobilised, Kp7-6 in solution; ratio of rate constants
# Protocol: as §3
# as §2, with “For binding studies, about 1500 resonance units (RU) of FasL-Flag, Fas-Fc and TNFRI-Fc were coupled to the chips. Surface plasmon resonance (SPR) measurements were carried out at a flow rate of 20 ml min⁻¹.” left out, “AG).” for “AG). The sensograms give values for the relative response in resonance units (RU) after background subtraction versus time in seconds.”
# Human recombinant TNFα = target: T4, Human recombinant TNFα (human, UniProt P01375 77-233); assay: SPR (BIAcore 3000), TNFα immobilised, Kp7-6 in flow; peptide concentration not given
# T4 construct: Bought from Roche Diagnostics
# T4 sequence (P01375 77-233 limits assumed): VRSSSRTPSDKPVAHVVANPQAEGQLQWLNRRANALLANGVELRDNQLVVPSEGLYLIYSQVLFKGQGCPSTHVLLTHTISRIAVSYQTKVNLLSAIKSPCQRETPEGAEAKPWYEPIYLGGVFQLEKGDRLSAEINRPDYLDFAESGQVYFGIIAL
# [5] = target: T2, Flag-tagged soluble human Fas ligand …; assay: solid phase ligand binding assay; peptide preincubated with FasL-Flag, inhibition of binding to immobilised Fas-Fc
# Protocol: To compare the inhibitory activities of the Kp7 peptide series, dose-response studies were performed. The best activity was found with Kp7-6, which inhibited 50% of the FasL-Flag molecule binding to immobilized Fas-Fc at 150 μM (FIG. 2B).
# Solid phase ligand binding assay. Fas-Fc fusion protein (250 ng/ml) diluted in PBS was immobilized onto 96 well ELISA plate (Costar, High Wycombe, UK) by incubating overnight at 4° C. After blocking with PBS containing 1% skim milk overnight at 4° C. and subsequent washing with PBS containing 0.05% Tween 20 (PBS-Tw), Flag-tagged soluble FasL (100 ng/ml)/peptide solution preincubated in PBS containing 1% skim milk for 1 h at 37° C. was added onto the Fas-Fc coated wells. After 2 h incubation at room temperature, the plate was washed with PBS-Tw, and anti-FLAG(M2)-HRP antibody 1:2500 in PBS containing 1% skim milk was added. After 1 h incubation at room temperature, the plate was washed with PBS-Tw, and the enzyme reaction was started by adding the substrate solution (0.1M sodium acetate buffer (pH 5.0) containing 100 μg/ml of TMBZ and 0.005% (v/v) H₂O₂) and stopped with 2N H₂SO₄. The absorbance at 450 nm was measured with an ELISA reader.
binder,measurement,setting,value
B1,binding result,[1],no binding
same,koff,[2],0.000765 s⁻¹
same,binding result,[3],binds
same,Kd,[4],11.2 µM
same,binding result,Human recombinant TNFα,no binding
same,IC50,[5],150 µM
